A short description of the series: protein stability index of a GFP-peptide fusion (GPS, HEK-293T) (PSI 1-6); higher = more stable.
Where [1] appears, read: treatment: DMSO, c terminus: a fixed tail appended.
[2] abbreviates: treatment: MLN4924 1 uM, 8 h, c terminus: a fixed tail appended.

± gives the standard deviation.
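Note: 24-mer peptide tiles fused after GFP, lentivirally expressed, FACS-sorted into six equal bins by GFP/DsRed ratio, decoded by Illumina sequencing, PSI is the read-weighted mean bin number.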

As to DECEKAYFYMSCLVKHKRIHSREK [ZNF649], the protein stability index turned out to be 2.69 ± 0.14 under setting [1] and 2.9 ± 0.35 under setting [2].
Regarding DFDYNAIDNANRILGPAYFVTYVF [PKD2L1], the protein stability index by setting is: under setting [1], 2.73 ± 0.6; under setting [2], 2.66 ± 0.59.
Regarding DFLETPELTSTMLVPASWWILNN [NECAB1], the protein stability index reads like this: (treatment: DMSO, c terminus: native) 2.21 ± 0.35; (treatment: MLN4924 1 uM, 8 h, c terminus: native) 2.18 ± 0.25.
In the case of DGIDRWIKEIDEHAPGVPRILVGN [RAB40C], the protein stability index runs as follows: under setting [1], 3.81 ± 0.19; under setting [2], 3.59 ± 0.26.
With DGYGMTPLLSASVTGHTNIVDFLT [FEM1C], the protein stability index runs as follows: under setting [1], 3.01 ± 0.27; under setting [2], 3.1 ± 0.28.
Turning to DIWSKSNYQVFQKVTDHATTALLH [MED27], the protein stability index under setting [1] was 2.44 ± 0.27 and the protein stability index under setting [2] came out at 2.34 ± 0.31.
On the same counts, the results for DKILALVPETIHDELQQSFQKSHN [PRIM1] are 3.85 ± 0.42 and 3.93 ± 0.47.
For the sequence DLEMKEEEEISETGELVGPFVSAM [ZBED2], the protein stability index is 5.29 ± 0.27 under setting [1] and 5.27 ± 0.12 under setting [2].
Regarding DLLLWIQKHTEVETVDLVLKLKNK [DENND6A], the protein stability index reads like this: under setting [1], 2.57 ± 0.63; under setting [2], 2.21 ± 0.45.
For the sequence DLRINLWNFEITNQSFNIVDIKPA [PPP2R2B], the protein stability index is 2.47 ± 0.86 under setting [1] and 2.4 ± 0.07 under setting [2].
Regarding DLTFAPDGSLILVSASRDKTLRVW [WSB1], the protein stability index was 2.32 ± 0.31 under setting [1] and 2.37 ± 0.099 under setting [2].
For DLVDSLKLAVFMWLMTYVGAVFNG [RTN3], in that order: 3.02 ± 0.59 and 3.2 ± 0.051.
With DLVNRTPWKKCCFSGDGEYIVAGS [RBBP5], the protein stability index turned out to be 2.64 ± 0.25 under setting [1] and 2.37 ± 0.21 under setting [2].
DPEVLEAVGDRQDGLREQLQAPVP [PBXIP1] registered a protein stability index under setting [1] of 5.43 ± 0.27 and a protein stability index under setting [2] of 5.4 ± 0.24.
As for DPGPEPEEEPGVRNGMASEGLNSS [PSD2], the protein stability index was 5.58 ± 0.25 under setting [1] and 5.44 ± 0.35 under setting [2].
Regarding DPLSTNYSLAPNTPINQNVSLHQA [NFE2L1], the protein stability index came to 4.25 ± 0.45 under setting [1] and 4.46 ± 0.16 under setting [2].
On the same counts, the results for DQDTLAPLPHPGAAPWPMAFPYQY [DVL3] are 3.15 ± 0.29 and 3.12 ± 0.25.
For DQEIKFFRCLFEAEITQIQSHISD [KRT71], in that order: 2.25 ± 0.36 and 2.34 ± 0.77.
As to DQTTSEETVGGAILDQTTSEDAVG [HDAC6], the protein stability index is, setting by setting: under setting [1], 5.54 ± 0.2; under setting [2], 5.54 ± 0.26.
For DRGPKGEKGEKGDRAGDASKDILL [SCARA5], in that order: 5.35 ± 0.27 and 4.69 ± 0.49.
On the same counts, the results for DRNTKRDVTLEASRESSKPRAVLK [PPP2R2C] are 4.62 ± 0.23 and 4.79 ± 0.17.
For DRVLNYTSWSQHCPWEPQKQPPWE [SPAG8], in that order: 2.87 ± 0.2 and 2.96 ± 0.15.
For the sequence DSDNSGGGGGGGGGGGGGGGTSSN [ANKRD17], the protein stability index is, setting by setting: under setting [1], 5.39 ± 0.31; under setting [2], 5.58 ± 0.22.
Consider DSKPESALGAPSKSPSSPQAAFTQ [TBX5], for which the protein stability index is 5.18 ± 0.36 under setting [1] and 5.21 ± 0.19 under setting [2].
Turning to DSSCSGQPIHLWQFLKELLLKPHS [SPDEF], the protein stability index reads like this: under setting [1], 2.47 ± 0.21; under setting [2], 2.46 ± 0.16.
Consider DSTNVEAAFQTILTEIYRIVSQKQ [RAB11A], for which the protein stability index was determined as 2.26 ± 0.35 under setting [1] and 2.46 ± 0.034 under setting [2].
For DVEDLQRDKARLLREKVEFLRSLR [NFE2L1], in that order: 3.33 ± 0.48 and 3.18 ± 0.34.
For the sequence DVHELFLQMAVLVEKQADTLNVIE [STX11], the protein stability index amounted to 2.2 ± 0.16 under setting [1] and 2.27 ± 0.27 under setting [2].
For DVKTNVQLLKGRVDNISTLDSEIK [CD207], in that order: 3.74 ± 0.48 and 4.01 ± 0.3.
On the same counts, the results for DVMLEELSLLTNRGSKMFKLRQMR [MYOZ1] are 2.48 ± 0.19 and 2.67 ± 0.29.
Turning to DVQLGDIILTATDGLFDNMPDYMI [PPTC7], the protein stability index is, setting by setting: under setting [1], 2.58 ± 0.33; under setting [2], 2.62 ± 0.42.
On to DWASNKVMFKIGDLGHVTRISSPQ [WEE1], for which the protein stability index by setting is: under setting [1], 2.53 ± 0.25; under setting [2], 2.64 ± 0.41.
On the same counts, the results for EADASHCIQQILEAVLHCHQMGVV [CAMK2A] are 3.3 ± 0.15 and 2.86 ± 0.71.
As to EAEQSLRNLEDIHMSLEKDIAAMT [TEKT4], the protein stability index by setting is: under setting [1], 4.58 ± 0.25; under setting [2], 4.8 ± 0.14.
On the same counts, the results for EAITDEERAPTATFHDSKHNIVHV [WDFY2] are 4.72 ± 0.13 and 4.63 ± 0.3.
For EAKALLKERQKKDNHNLIERRRRF [TFE3], in that order: 4.21 ± 0.32 and 4.38 ± 0.2.
With EANADLEVKIRDWHLKQSPASPER [KRT13], the protein stability index reads like this: under setting [1], 4.79 ± 0.15; under setting [2], 4.97 ± 0.27.
On the same counts, the results for EAPDSLNGPLGPSEASIASNLQAM [SMG5] are 4.99 ± 0.21 and 4.91 ± 0.25.
On the same counts, the results for EAQHGPHSAVARISRAQYNALTLT [STX11] are 3.32 ± 0.11 and 3.47 ± 0.31.
In the case of ECAMETTEEQTRQERQGPAKPEVL [NECAB1], the protein stability index came to 5.57 ± 0.33 under setting [1] and 5.6 ± 0.23 under setting [2].
Take ECGKTFIYNSHLVVHQRVHSGEKP [ZNF232]: the protein stability index stood at 2.96 ± 0.37 under setting [1] and 2.9 ± 0.49 under setting [2].
On the same counts, the results for ECLKRQGQREPGSLSRNNSFRRNV [FBXO34] are 4.11 ± 0.26 and 4.22 ± 0.18.
On the same counts, the results for EDDDEEDTDKLLNSASDPSLKDGL [PSD2] are 5.51 ± 0.3 and 5.46 ± 0.33.
Sequence EDDPLLDAQLLPHHSLQAHFRPRF [TMEM192] had a protein stability index under setting [1] of 3.57 ± 0.35 and a protein stability index under setting [2] of 3.53 ± 0.15.
On the same counts, the results for EDGPGKEEAPELDEAELDYLMDVL [SERTAD1] are 5.08 ± 0.12 and 5.01 ± 0.21.
EDHGLVTCSADHLIILWKNGERES [WDR41]: the protein stability index stood at 3.27 ± 0.28 under setting [1] and 2.74 ± 0.21 under setting [2].
On the same counts, the results for EDLLQQMLERRYTPYPNLYPDQSP [CLCN6] are 3.28 ± 0.24 and 3.29 ± 0.15.
On the same counts, the results for EDQPINLCDKLPPATALGTASYPS [NOL4L] are 4.6 ± 0.19 and 4.62 ± 0.084.
On to EDYSRDEDHIAHIIELLGSIPRHF [SRPK2], for which the protein stability index is 2.62 ± 0.13 under setting [1] and 2.85 ± 0.31 under setting [2].
Regarding EEAAMQKCLVTEAQTLLRLSGVQR [RSAD1], the protein stability index came out at 3.51 ± 0.15 under setting [1] and 3.52 ± 0.35 under setting [2].
On the same counts, the results for EEEKLKAEEIRIKGKYNISSEDYR [KCNK9] are 5.21 ± 0.19 and 5.29 ± 0.13.
For EEEPTGAGLNKDKETEERTDGERV [SDE2], in that order: 5.84 ± 0.13 and 5.61 ± 0.37.
For EEGLADEEKKLRRSQHARKETEFL [STK38L], in that order: 5.33 ± 0.08 and 5.2 ± 0.39.
